# B1: 人源抗新冠病毒中和性抗体D2 (全抗体IgG) (antibody, V domains shown)
# VH: EVQLVESGGGLVQPGRSLTLSCGASGFTFEDYAMHWVRQAPGKGLEWVSGIDWNSGVIGYADSVKGRFIISRDNAKNSLYLHMRSLTAEDTALYYCAKDVYSESGSGSYYDYWGQGTLVTVSS
# VL: QSVLTQPPSVSAAPGQKVAISCSGSTSNIGDNFVSWYQQFPGTAPKLLLYDDARRPSGIPDRFSGSKSGTSATLGITGLQTGDEAVYFCSTWDNSLNVVLFGGGTKLTVL
# notes: also called D2号抗体; 纯化D2抗体
# Tests used:
# 新型冠状病毒Omicron变体RBD蛋白 = target: T1, 新型冠状病毒Omicron变体RBD蛋白 (SARS-CoV-2 Omicron variant, UniProt P0DTC2 319-541); experiment: SPR, BIAcore 8000, RBD protein coupled to the chip, 1:1 binding fit
# T1 construct: domain: RBD
# 新型冠状病毒Delta变体RBD蛋白 = target: T2, 新型冠状病毒Delta变体RBD蛋白 (SARS-CoV-2 Delta variant, UniProt P0DTC2 319-541); experiment: as above
# T2 construct: domain: RBD; also called 新冠Delta变体RBD蛋白
binder,measurement,setting,value
B1,Kd,新型冠状病毒Omicron变体RBD蛋白,0.011 nM
same,Kd,新型冠状病毒Delta变体RBD蛋白,0.0621 nM

# Reference: patent CN114106166A (VIRUS DISEASE PREVENTION AND CONTROL PLACE OF CHINESE …, dated 2022)
